Data taken from the supplement of paper PMC10724198.

Key:
Saccharomyces cerevisiae [1] = assay: protein stability index of tFT-peptide fusion in wild type (PSI (0-1 scale)); higher = more stable (slower turnover); settings: genetic background: wild type
Protocol: (§1)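 MPS profiling in S. cerevisiae of two library types built from selected 12-aa C-degron peptides (IN1, IN2, LN1, LN3, VN2, R1-R5, W1-W3, Atg1 and Rpa12 C-termini): saturation mutagenesis libraries and C-terminal +1 capping libraries (13 aa). Each peptide is fused to the C-terminus of a sfGFP-mCherry timer, after a GGGS linker. Cells are FACS-sorted into 8 mCherry/sfGFP bins and sequenced. PSI runs from 0 (unstable) to 1 (stable), measured once in wild type and in the das1Δ or doa10Δ background.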

Saccharomyces cerevisiae [2] = assay: protein stability index of tFT-peptide fusion in deletion strain of DAS1 (PSI (0-1 scale)); higher = more stable (slower turnover)
Protocol: as §1
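For protein stability index of tFT-peptide fusion in deletion strain of DAS1 in this document: PSI is a weighted mean of each variant's read distribution over the sorted stability bins, computed only for variants having over 10 reads in total.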
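For protein stability index of tFT-peptide fusion in wild type in this document: PSI derived as read-weighted mean over the 8 sorting bins, only variants exceeding 10 total reads kept, mCherry placed adjacent to the peptide and sfGFP distal.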

Sequence | protein stability index (Saccharomyces cerevisiae [1]) | protein stability index (Saccharomyces cerevisiae [2])
LRWRVGLWRGAS | 0.0917 | 0.682
LSMRWTFRYWVN | 0.0756 | 0.531
LVVHLSCVACIN | 0.0147 | 0.0251
LVVYDSCVACIN | 0.368 | 0.468
LVVYLNCVACIN | 0.0331 | 0.0265
LVVYLPCVACIN | 0.119 | 0.202
LVVYLSCNACIN | 0.0647 | 0.0655
LVVYLSCVACINA | 0.0212 | 0.0343
LVVYLSCVACINP | 0.0199 | 0.0332
LVVYLSCVACIP | 0.0232 | 0.0442
LVVYLSCVLCIN | 0.0221 | 0.141
LVVYLSCVQCIN | 0.0151 | 0.0333
LVVYLSGVACIN | 0.181 | 0.264
LVVYLSIVACIN | 0.0584 | 0.0849
LVVYLSSVACIN | 0.0245 | 0.0579
LVVYLWCVACIN | 0.0141 | 0.0851
LVYYLSCVACIN | 0.0126 | 0.0331
LWILRQKMNHQN | 0.124 | 0.695
MLIQPLPVQFLN | 0.0562 | 0.654
NVVYLSCVACIN | 0.0156 | 0.0341
PAKRNHLIKLLN | 0.131 | 0.618
PALAASFWRVVG | 0.178 | 0.687
PDCRNHLIKLLN | 0.136 | 0.673

Sequence | protein stability index (Saccharomyces cerevisiae [1]) | protein stability index (Saccharomyces cerevisiae [2])
PDIRNHLIKLLN | 0.134 | 0.675
PDKRNFLIKLLN | 0.112 | 0.61
PDKRNHHIKLLN | 0.111 | 0.665
PDKRNHIIKLLN | 0.132 | 0.57
PDKRNHLEKLLN | 0.292 | 0.63
PDKRNHLIGLLN | 0.612 | 0.609
PDKRNHLIILLN | 0.107 | 0.66
PDKRNHLIKLLNL | 0.298 | 0.665
PDKRNHLIKTLN | 0.164 | 0.604
PDKRNHLIVLLN | 0.148 | 0.637
PDKRNHLNKLLN | 0.126 | 0.579
PDKRNHLRKLLN | 0.205 | 0.574
PDKRNHRIKLLN | 0.159 | 0.661
PDKRNQLIKLLN | 0.0747 | 0.633
PDKRYHLIKLLN | 0.0495 | 0.597
PDVRNHLIKLLN | 0.119 | 0.613
PPKRNHLIKLLN | 0.116 | 0.581
PSLAAAFWRVVG | 0.142 | 0.702
PSLAADFWRVVG | 0.171 | 0.712
PSLAAGFWRVVG | 0.164 | 0.678
PSLAALFWRVVG | 0.129 | 0.674
PSLAASCWRVVG | 0.143 | 0.675
PSLAASFWRGVG | 0.232 | 0.707

Sequence | protein stability index (Saccharomyces cerevisiae [1]) | protein stability index (Saccharomyces cerevisiae [2])
PSLAASFWRRVG | 0.128 | 0.69
PSLAASFWRVDG | 0.68 | 0.7
PSLAASFWRVNG | 0.167 | 0.702
PSLAASFWRVVGF | 0.692 | 0.693
PSLAASFWRVVGQ | 0.649 | 0.705
PSLAASFWRVVGR | 0.692 | 0.691
PSLAASFWRVVW | 0.637 | 0.683
PSLAASGWRVVG | 0.193 | 0.679
PSLAASMWRVVG | 0.147 | 0.73
PSLAASTWRVVG | 0.132 | 0.68
PSLAGSFWRVVG | 0.152 | 0.667
PSLAHSFWRVVG | 0.167 | 0.669
PSLAISFWRVVG | 0.127 | 0.633
PSMRWTFRYWVN | 0.0877 | 0.571
QDKRNHLIKLLN | 0.0816 | 0.592
QSLAASFWRVVG | 0.13 | 0.698
RAIQPLPVQFLN | 0.121 | 0.674
RIIQPLPVQFLN | 0.0603 | 0.598
RLIEPLPVQFLN | 0.076 | 0.578
RLIPPLPVQFLN | 0.0667 | 0.576
RLIQPLLVQFLN | 0.0592 | 0.575
RLIQPLPAQFLN | 0.0736 | 0.602
RLIQPLPHQFLN | 0.0684 | 0.645

Sequence | protein stability index (Saccharomyces cerevisiae [1]) | protein stability index (Saccharomyces cerevisiae [2])
RLIQPLPNQFLN | 0.21 | 0.703
RLIQPLPPQFLN | 0.132 | 0.521
RLIQPLPVAFLN | 0.0928 | 0.552
RLIQPLPVQFLND | 0.652 | 0.671
RLIQPLPVQFLNK | 0.647 | 0.676
RLIQPLPVQFLNM | 0.584 | 0.655
RLIQPLPVQFLR | 0.668 | 0.58
RLIQPLPVQFLS | 0.156 | 0.606
RLIQPLPVQHLN | 0.1 | 0.564
RLIQPLPWQFLN | 0.0707 | 0.699
RLIQPRPVQFLN | 0.0515 | 0.613
RLIQWLPVQFLN | 0.071 | 0.613
RLIWPLPVQFLN | 0.0399 | 0.57
RRGAVGGWRLVG | 0.16 | 0.687
RTIQPLPVQFLN | 0.101 | 0.629
SDKRNHLIKLLN | 0.156 | 0.607
SRGAVGGWRLVG | 0.171 | 0.677
SRWRVGLWRGAS | 0.458 | 0.672
SSLAASFWRVVG | 0.16 | 0.692
TSMRWTFRYWVN | 0.0899 | 0.696
